This note sets out measurements from patent US20070128192A1 (AstraZeneca / MedImmune, published 2007).

In assay [1] the target is T1, human IL-13 (human, UniProt P35225 15-146). Kind of assay: cell-based or functional assay.
The target of assay [2] is T2, wild type human IL-13, baculovirus expressed, carboxyl terminus affinity tag (human, UniProt P35225 33-146). Kind of assay: cell-based or functional assay.
The target of assay [3] is T3, non-human primate IL-13 (rhesus and cynomolgus, identical), baculovirus expressed, carboxyl terminus affinity … (rhesus and cynomolgus monkey, UniProt Q5I6E4 21-132 (Macaca thibetana entry)).
T3 chain: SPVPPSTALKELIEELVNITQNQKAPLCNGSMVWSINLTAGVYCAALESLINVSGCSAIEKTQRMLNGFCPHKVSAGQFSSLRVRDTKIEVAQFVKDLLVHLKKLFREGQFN
Kind of assay: cell-based or functional assay.

Assay [4] concerns the target T3, non-human primate IL-13 (rhesus and …). Kind of assay: cell-based or functional assay.
Assay [5] deals with human IL-13 variant (Q130R), baculovirus expressed, carboxyl terminus affinity tag (human, UniProt P35225 33-146). Kind of assay: cell-based or functional assay.
Assay [6] deals with native (naturally occurring) human IL-13 released from HDLM-2 cells (human, UniProt P35225 15-146). Kind of assay: cell-based or functional assay.
The target in assay [7] is T2, wild type human IL-13, baculovirus …. Kind of assay: cell-based or functional assay. This is another data set of the same source.
Assay [8] concerns the target T1, human IL-13. Kind of assay: BIAcore, IgG coupled to CM5 chip, IL-13 50 nM to 0.78 nM passed over.
Assay [9] has as its target T4, murine IL-13 (mouse, UniProt P20109 21-131, limits assumed).
T4 sequence (looked up): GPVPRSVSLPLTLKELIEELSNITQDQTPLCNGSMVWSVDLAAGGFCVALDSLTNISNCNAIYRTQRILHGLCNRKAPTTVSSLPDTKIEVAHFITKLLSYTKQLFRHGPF
Kind of assay: cell-based or functional assay.

Assay [10] deals with T4, murine IL-13. Kind of assay: BIAcore, IgG4 coupled to CM5 chip, murine IL-13 passed over.
Assay [11] deals with T1, human IL-13. Kind of assay: cell-based or functional assay. This is another data set of the same source.

Read-outs that look alike come from different tables or passages of the source.

human IL-13 variant (Q130R), baculovirus expressed, carboxyl terminus affinity tag, sequence (P35225 33-146 limits assumed, stated change not applied, form in doubt): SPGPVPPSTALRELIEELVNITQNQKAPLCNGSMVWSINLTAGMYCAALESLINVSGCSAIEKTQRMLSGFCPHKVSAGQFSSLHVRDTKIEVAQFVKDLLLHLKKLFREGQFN
native (naturally occurring) human IL-13 released from HDLM-2 cells, sequence (P35225 other isoform, or with tags, fused parts or gaps): as the sequence (P35225 33-146 limits assumed, stated change not applied, form in doubt) above, with Q112R counted along it
T1 sequence (P35225 other isoform, or with tags, fused parts or gaps): as the sequence (P35225 33-146 limits assumed, stated change not applied, form in doubt) above, with Q112R counted along it
T2 sequence (P35225 other isoform, or with tags, fused parts or gaps): as the sequence (P35225 33-146 limits assumed, stated change not applied, form in doubt) above, with Q112R counted along it

B1: BAK278D6 scFv (scFv, V domains shown)
VH: EVQLVQSGAEVKKPGASVKVSCKASGYTFRNYGLSWVRQAPGQGLEWMGWISANNGDTNYGQEFQGRITMTTETSTNTAHMELRSLRSDDTAVYYCVRDSSSNWARWFFDLWGKGTMVTVSS
VL: SYVLTQPPSVSVAPGQTARIPCGGNNIGSKLVHWYQQKPGQAPVLVVYDDGDRPSGIPERFSGSNSGNTATLTISRIDAGDEADYYCQVWDTGSDPVVFGGGTKLTVL
As for B1, the “IC50, TF-1 cell proliferation assay” value in the assay with human IL-13 [1] was 44 nM. Further, in assay [2], the “IC50 (read off the curve); TF-1 cell proliferation, 25 ng/ml human IL-13” value was approximately 70 nM. Besides, the “IC50 (read off the curve); TF-1 cell proliferation, 50 ng/ml non-human primate IL-13” value in assay [3] was approximately 90 nM.

B2: BAK502G9 IgG4 (antibody, V domains shown)
VH: QVQLVQSGAEVKKPGASVKVSCKASGYTFTNYGLSWVRQAPGQGLEWMGWISANNGDTNYGQEFQGRVTMTTDTSTSTAYMELRSLRSDDTAVYYCARDSSSSWARWFFDLWGRGTLVTVSS
VL: SYVLTQPPSVSVAPGKTARITCGGNIIGSKLVHWYQQKPGQAPVLVIYDDGDRPSGIPERFSGSNSGNTATLTISRVEAGDEADYYCQVWDTGSDPVVFGGGTKLTVL
Take B2: the results for the “IC50, TF-1 cell proliferation assay” value in assay [4] and in [5] were 2 nM and 1.9 nM, respectively. In [6], the “IC50, HDLM-2 cell proliferation assay” value was determined as 4.6 nM.

B3: BAK1167F2 IgG4 (antibody, V domains shown)
VH: QVQLVQSGAEVKKPGASVKVSCKASGYTFEQTGVSWVRQAPGQGLEWMGWISANNGDTNYGQEFQGRVTMTTDTSTSTAYMELRSLRSDDTAVYYCARDSSSSWARWFFDLWGRGTLVTVSS
VL: SYVLTQPPSVSVAPGKTARITCGGNIIGSKLVHWYQQKPGQAPVLVIYDDGDRPSGIPERFSGSNSGNTATLTISRVEAGDEADYYCQVWDTGSDPVVFGGGTKLTVL
Consider B3, for which the “IC50, TF-1 cell proliferation assay” value in assay [5] was determined as 1.1 nM; in [7], 1 nM. In addition, the “IC50, HDLM-2 cell proliferation assay” value in assay [6] amounted to 1.1 nM.

B4: BAK278D6 IgG (antibody, V domains shown)
VH: EVQLVQSGAEVKKPGASVKVSCKASGYTFRNYGLSWVRQAPGQGLEWMGWISANNGDTNYGQEFQGRITMTTETSTNTAHMELRSLRSDDTAVYYCVRDSSSNWARWFFDLWGKGTMVTVSS
VL: SYVLTQPPSVSVAPGQTARIPCGGNNIGSKLVHWYQQKPGQAPVLVVYDDGDRPSGIPERFSGSNSGNTATLTISRIDAGDEADYYCQVWDTGSDPVVFGGGTKLTVL
In the assay with human IL-13 [8], B4 showed a Kd of 13.5 nM, a koff of 0.00741 s⁻¹ and a kon of 549000 M⁻¹ s⁻¹.

B5: BAK1183H4 IgG4 (antibody, V domains shown)
VH: QVQLVQSGAEVKKPGASVKVSCKASGYTFTNYGLSWVRQAPGQGLEWMGWINYDGGNTQYGQEFQGRVTMTTDTSTSTAYMELRSLRSDDTAVYYCARDSSSSWARWFFDLWGRGTLVTVSS
VL: SYVLTQPPSVSVAPGKTARITCGGNIIGSKLVHWYQQKPGQAPVLVIYDDGDRPSGIPERFSGSNSGNTATLTISRVEAGDEADYYCQVWDTGSDPVVFGGGTKLTVL
For the molecule B5, the “IC50, TF-1 cell proliferation assay” value is 1 nM in assay [5] and 0.9 nM in [7]. For the same molecule, the “IC50, HDLM-2 cell proliferation assay” value in assay [6] is 3.5 nM.

B6: BAK209B11 scFv (scFv, V domains shown)
VH: VQLQESGGGGLVQPGGSLRLSCAASGFTFSSYGMSWVRQAPGKGLEWVSSISASGDSTFYADSVKGRFTISRDNNKNMVFLQVNSLRADDTAVYFCAKDWSQWLVGDAFDVWGRGTTVTVSS
VL: DIQLTQSPSTLSASVGDRVTITCRASQSVSLWVAWYQQRPGKAPKLLIYDGSTLQSGVPARFSGSGSGTEFTLTISSLQPDDFATYYCQQYKTFSTFGQGTKVEIK
On to B6, for which the “IC50, TF-1 cell proliferation assay” value in the assay with murine IL-13 [9] is 185 nM.

B7: BAK209B11 human IgG4 (antibody, V domains shown)
VH: VQLQESGGGGLVQPGGSLRLSCAASGFTFSSYGMSWVRQAPGKGLEWVSSISASGDSTFYADSVKGRFTISRDNNKNMVFLQVNSLRADDTAVYFCAKDWSQWLVGDAFDVWGRGTTVTVSS
VL: DIQLTQSPSTLSASVGDRVTITCRASQSVSLWVAWYQQRPGKAPKLLIYDGSTLQSGVPARFSGSGSGTEFTLTISSLQPDDFATYYCQQYKTFSTFGQGTKVEIKR
With B7, in the assay with murine IL-13 [9], the “IC50, B9 cell proliferation assay” value worked out at 0.776 nM. In the assay with murine IL-13 [10], this molecule registered a Kd of 5.1 nM, a dissociation rate constant (koff) of 0.0198 s⁻¹ and a kon of 3.9e+06 M⁻¹ s⁻¹.

B8: BAK615E3 scFv (scFv, V domains shown)
VH: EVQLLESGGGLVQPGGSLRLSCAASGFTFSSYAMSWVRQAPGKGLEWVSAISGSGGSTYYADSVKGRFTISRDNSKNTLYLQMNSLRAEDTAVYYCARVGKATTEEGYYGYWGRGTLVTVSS
VL: NFMLTQPHSVSESPGKTVTISCTRSSGSIASNYVQWYQQRPGSAPTTVIYDDNQRPSGVPDRFSGSIDSSSNSASLTISGLKTEDEADYYCQSYDSNNDVFGGGTKVTVL
B8: the “IC50, TF-1 cell proliferation assay” value with human IL-13 [11] was found to be 3 nM.

Usually Kd stands for the constant that tells how readily two partners part at equilibrium. What is called koff is the rate constant with which the complex falls apart. A higher koff goes with fast dissociation. One may read the kon as the rate constant with which the complex forms. A higher kon goes with fast association.
